Results from PMC6818130.

Tests used:
[1] = glycan lost
[2] = confocal immunofluorescence co-localisation with LAMP1; conditions: glycan lost; control: wild-type GILT
[3] = Western blot, steady-state level, Tet-induced 293 cells; conditions: glycan lost; control: wild-type GILT

Gamma-interferon-inducible lysosomal thiol reductase (GILT, IFI30): N63A
decreases: other: restriction of viral entry [1] | localisation_or_trafficking [2] | expression_or_secretion [3]

Gamma-interferon-inducible lysosomal thiol reductase (GILT, IFI30): N95A
decreases: other: restriction of viral entry [1] | localisation_or_trafficking [2] | expression_or_secretion [3]

Gamma-interferon-inducible lysosomal thiol reductase (GILT, IFI30): N108A
decreases: other: restriction of viral entry [1] | localisation_or_trafficking [2] | expression_or_secretion [3]
